# From publication PMC4820614
# T1: full-length rat TRPV2 (rat), Q9WUD2
# T1 chain: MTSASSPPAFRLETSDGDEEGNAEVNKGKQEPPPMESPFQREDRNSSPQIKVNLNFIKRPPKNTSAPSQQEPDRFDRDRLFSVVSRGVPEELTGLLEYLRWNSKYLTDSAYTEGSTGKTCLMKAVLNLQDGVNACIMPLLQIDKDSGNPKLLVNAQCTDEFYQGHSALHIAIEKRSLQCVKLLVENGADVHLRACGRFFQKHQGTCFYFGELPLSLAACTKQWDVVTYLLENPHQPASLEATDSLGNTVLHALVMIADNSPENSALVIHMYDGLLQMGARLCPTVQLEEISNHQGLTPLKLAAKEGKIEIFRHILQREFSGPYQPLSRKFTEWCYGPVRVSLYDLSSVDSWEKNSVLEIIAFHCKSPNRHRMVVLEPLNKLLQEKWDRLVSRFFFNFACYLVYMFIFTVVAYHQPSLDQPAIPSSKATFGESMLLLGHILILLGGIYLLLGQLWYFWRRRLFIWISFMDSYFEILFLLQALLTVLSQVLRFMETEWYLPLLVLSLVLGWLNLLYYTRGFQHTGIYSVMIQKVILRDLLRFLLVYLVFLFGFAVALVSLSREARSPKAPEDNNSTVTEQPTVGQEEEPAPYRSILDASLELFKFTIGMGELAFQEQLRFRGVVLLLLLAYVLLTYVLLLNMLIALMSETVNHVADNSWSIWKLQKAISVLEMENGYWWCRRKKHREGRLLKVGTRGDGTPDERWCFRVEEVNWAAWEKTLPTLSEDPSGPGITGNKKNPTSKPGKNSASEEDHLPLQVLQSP
# B1: full-length rat TRPV2, Q9WUD2 1-761 (natural protein)
# chain: MTSASSPPAFRLETSDGDEEGNAEVNKGKQEPPPMESPFQREDRNSSPQIKVNLNFIKRPPKNTSAPSQQEPDRFDRDRLFSVVSRGVPEELTGLLEYLRWNSKYLTDSAYTEGSTGKTCLMKAVLNLQDGVNACIMPLLQIDKDSGNPKLLVNAQCTDEFYQGHSALHIAIEKRSLQCVKLLVENGADVHLRACGRFFQKHQGTCFYFGELPLSLAACTKQWDVVTYLLENPHQPASLEATDSLGNTVLHALVMIADNSPENSALVIHMYDGLLQMGARLCPTVQLEEISNHQGLTPLKLAAKEGKIEIFRHILQREFSGPYQPLSRKFTEWCYGPVRVSLYDLSSVDSWEKNSVLEIIAFHCKSPNRHRMVVLEPLNKLLQEKWDRLVSRFFFNFACYLVYMFIFTVVAYHQPSLDQPAIPSSKATFGESMLLLGHILILLGGIYLLLGQLWYFWRRRLFIWISFMDSYFEILFLLQALLTVLSQVLRFMETEWYLPLLVLSLVLGWLNLLYYTRGFQHTGIYSVMIQKVILRDLLRFLLVYLVFLFGFAVALVSLSREARSPKAPEDNNSTVTEQPTVGQEEEPAPYRSILDASLELFKFTIGMGELAFQEQLRFRGVVLLLLLAYVLLTYVLLLNMLIALMSETVNHVADNSWSIWKLQKAISVLEMENGYWWCRRKKHREGRLLKVGTRGDGTPDERWCFRVEEVNWAAWEKTLPTLSEDPSGPGITGNKKNPTSKPGKNSASEEDHLPLQVLQSP
# Target: T1, full-length rat TRPV2 (rat), Q9WUD2
# Assay: cryo-EM structure; single particle cryo-EM of purified rat TRPV2 without ligand, 2.5 mg/ml, in decyl MNG, 150 mM NaCl, 20 mM HEPES pH 8.0, 1.0 mM DTT; no added lipids
# Details: remark: other sources report otherwise
binder,measurement,value
B1,stoichiometry N,4
